Measurements taken from article PMC6838142, “Nano-Antagonist Alleviates Inflammation and Allows for MRI of Atherosclerosis” (Nanotheranostics, 2019).
“Also recorded” adds a separate entry of the source.

Tests used:
BMDMs = test: GSH/GSSG assay in LPS-primed BMDMs; type: cell-based, mouse; conditions: LPS-primed (100 ng/mL) BMDMs, 5 µM CCTV vs vehicle, 8 experiments
[1] = Dynamic light scattering of nanoparticles; type: physicochemical; conditions: Malvern Zetasizer Nano S; for Size (Mean Z average): hydrodynamic diameter
Description: Lipid-peptide conjugates were synthesized from either DSPE-PEG-CO2H or DSPE-PEG-MAL using peptides derived using SVM prediction platform and listed in Supplementary Table S2. The peptides were conjugated to either the N-terminus or via sulfhydryl groups as depicted in Figure 1E. Lipid films from both PEGylated derivatives were prepared by evaporation under nitrogen gas, from 1 µM of lipid solution in chloroform. Tetrapeptides were custom-synthesized by Genscript. 5 µmol of peptide solutions in water:dimethylformamide (1:1) were prepared via a brief bath sonication. […] PEGylated lipids prepared above were sonicated (10 min, 300 W, room temperature) in 5 mL of MES (pH 6, 100 mM) for DSPE-PEG-CO2H and in 5 mL of HEPES buffered saline [HBS] (pH 7.2, 100 mM, 154 mM NaCl) for DSPE-PEG-MAL. Next, DSPE-PEG-CO2H was activated by the addition of 2 mg of EDC (20 mg/mL in water) and 5 mg of sulfo-NHS (10 mg/mL in water). This was sonicated at 15 W for 10 min in a temperature controlled bath at 30 °C. Then, peptide solutions/suspensions were added to the resulting DSPE-PEG-NHS or previously prepared DSPE-PEG-MAL and stirred at room temperature for 4 h. The reaction with DSPE-PEG-NHS was quenched by the addition of 100 µL of 0.5 M of NH2OH in HBS, plus 1 mM EDTA. The reaction with DSPE-PEG-MAL was quenched by the addition of 7 µL of 2-mercaptoethanol. The solution was freezed at -80 °C and lyophilized. Next, lipid-peptide conjugates were extracted with chloroform (3 x 2 mL) and centrifuged at 4000 g x 5 min. Combined extract supernatants were evaporated under N2 gas and sonicated (10 min, 100 W) in 0.5-1 mL of water at room temperature. This raw product was purified by size […] chromatography as follows. Millipore Vantage column (10 x 500 mm) was packed with Sepharose 4B in deionized water under flow rate of 0.5 mL/min. Next, 0.5 mL of raw nanoparticle preparation was injected into the column and 0.5 mL fractions were collected at 0.5 mL/min simultaneously with UV detection at 190, 214, 250 and 280 nm using the Bio Rad DuoFlow system equipped with BioLogic QuadTec UV/Vis detector. See Supplementary Figure S2 for representative chromatograms. Combined fractions 15-31 were frozen and lyophilized. Particles used in signalling In vitro work were prepared by reconstitution of lyophilizates in PBS or HBS buffer via sonication. Particles used in reporter, flow cytometry and microscopy experiments were prepared by addition of 1% (by weight) of Rhodamine-PE in ethanol followed by reconstitution as described above. Particles used in magnetic resonance imaging (MRI) and time-resolved fluorescence (TRF) assays were prepared by addition of 10-20% (by weight) of gadolinium or europium chelate-lipids followed by reconstitution as above. Gadolinium-DTPA (18:0 PE-DTPA) was obtained from Avanti Polar Lipids and europium cryptate-NHS was obtained from Aat Bioquest (Supplementary Table S1). Europium cryptate-NHS was further conjugated to phosphatidylethanolamine (PE) to obtain Eu-cryptate-PE according to published and well established protocols. To confirm peptide conjugation, the powder was reconstituted in 1 mL of chloroform and analyzed with TLC (eluent chloroform:methanol:water 65:25:4) detecting with Molybdenum blue (Supplementary Figure S3A) or Dragendorff reagent (Supplementary Figure S3B). Nanoparticles were characterized by dynamic light scattering using Malvern Zetasizer Nano S (Supplementary Table S3). The presence of the peptide bond (N-H) and aliphatic C-H and C-C stretches (lipids) was confirmed by infrared (IR) spectroscopy. Nanoparticles were isolated as a homogeneous population (peak) in gel-filtration (see above) and were used without additional purification.

[2] = system: caspase 3 and heme oxygenase (HO-1) proteins in RAW cells; test: Immunoblot of active caspase 3 and HO-1; type: cell-based, mouse; conditions: 1 µM nanoparticles, 3 h
Description: Immunoblotting was performed as previously described with the following modifications. Briefly, cell lysates were obtained in SDS lysis buffer consisting of 2% SDS, 50 mM Tris-HCl (pH 6.8), 100 mM DTT, 5% Ficoll 400, 0.0001% bromophenol blue and a cocktail of protease inhibitors. Lysates were sonicated on ice before heating at 97 °C for 7 min to completely denature the protein. Protein concentration was determined using IR spectroscopy (which is insensitive to high SDS and DTT concentrations) with a Millipore DirectDetect spectrometer. Lysates were equally loaded at 10-15 µg per lane on BioRad TGX Criterion gels (4-15%) and resolved at 300 V in Tris-Glycine running buffer. Proteins were transferred on nitrocellulose membranes using the BioRad TransBlot turbo according to the manufacturer's instructions. Membranes were blocked in fish serum (Aqua Block) or 5% nonfat dry milk in TBS-T (0.05% Tween 20) and probed overnight at 4 °C with primary antibodies as indicated in Supplementary Table S1. The membranes were washed in TBS-T and incubated with secondary antibodies for 1 h at room temperature. After washing, semi-quantitative visualization of the proteins of interest was enabled using an enhanced chemiluminescence reagent as previously described and the Azure C400 western blot imaging system.
N-acetylcysteine (NAC) served as an antioxidant control. β-Actin was used as a loading control. B) Gene expression analysis in RAW cells treated with 1 µM of vehicle, CCTV and VTCC (peptide nanoparticle control) for 24 h. mRNA expression of mannose receptor (Mrc1), nitric oxide synthase 2 (Nos2), tumor necrosis factor (Tnf), interleukin-1beta (Il1b), and interleukin-6 (Il6) were analyzed. C) Cytokines in cell culture supernatants were analyzed as indicated. D) Schematic representation of transcriptional activation of primary and secondary inflammatory response to lipopolysaccharide (LPS). E) Immunoblot analysis of dose-dependent suppression of IL-1β and HO-1 production by CCTV with and without stimulation by 100 ng/mL LPS for 16 h in bone marrow derived macrophages (BMDMs). GAPDH served as a loading control. F) Chemotaxis assays in bone marrow derived monocytes treated with 5 µM vehicle, CCTV, VTCC or left untreated. Chemotaxis was stimulated by introducing a gradient of recombinant mouse CCL2. Forty (out of 150-300) cell migration tracks are presented for simplicity. Metrics of chemotactic behaviour i.e. velocity, distance travelled, and chemotactic index were quantified as presented in bar graphs. G) BMDMs were pre-treated for 6 h with 5 µM CCTV or VTCC followed by 500 nM CCL2 for the indicated times. […] P values are calculated by t-test and error bars are standard errors of three independent experiments.

[3] = system: F4/80-positive plaque macrophages; test: Immunohistochemistry / plaque macrophage co-staining; type: in vivo, mouse; conditions: rhodamine signal, 24 h after injection
Description: Twenty-four hours after nanoparticle injection (see above), mice were euthanized and abdominal aortas were isolated and embedded in Optimal Cutting Temperature compound. After cryotome-sectioning, resulting in 20-30 slides per mouse, 15 slides were sent to Ohio State laser capture microdissection core lab for capture and analysis. The rest of the slides were processed as follows: after fixation in methanol:acetone 50:50 at -20 °C, slides were hydrated in PBS, blocked for 30 min in fish serum (Aqua Block) and stained for 1 h with primary antibodies against F4/80 followed washing and staining with HRP-conjugated secondary antibody for 30 min. DAB peroxidase kit was then used as per manufacturer's instructions followed by mounting. DAB and antibody staining (but not wash steps) was omitted in slides designated for nanoparticle fluorescence visualization. Nanoparticles fluorescence was visualized with Zeiss 510 LSM-meta confocal microscope and 20x objective. DAB F4/80 staining was visualized with Nikon FN1 microscope and same power objective.

[4] = system: bone marrow derived monocytes, CCL2-induced migration; test: CCL2-induced chemotaxis assay; type: cell-based, mouse; conditions: pre-treated BMDMs; 100 nM recombinant mouse CCL2, 12 h; nanoparticles
Description: Chemotaxis assays were performed using IBIDI µ-Slides as per the manufacturer's instructions and the recently published guide detailing the protocol. […] Cells were allowed to attach for 3 h at 37 °C, washed with 0.2 mL warm cell culture medium using a pipette tip inserted into µ-channel port, following which 100 nM recombinant mouse CCL2 protein was added as a chemoattractant (or omitted in control slides) to the one of side reservoirs. Cell movement was recorded for a duration of 12 h via phase video-microscopy in a stage-top humidified incubator at 37 °C and 5% CO2 atmosphere. Analysis was performed using the ImageJ IBIDI tracking tool, available free of charge at https://ibidi.com.

[5] = system: interleukin-1 beta (IL-1β); conditions: CANTOS clinical trial, cited from earlier work
Description: Inflammation is a process of immune system activation that is often accompanied by increased migration of immune cells to a site of injury or disease. Inflammation-driven immune cell migration is orchestrated via chemokine receptor-ligand pairs that are ubiquitously expressed in innate immune cells and are hyperactivated in many pathologies.

CC(=O)N[C@@H](CS)C(=O)O [NAC, N-Acetyl-L-cysteine, reference compound]
GSH levels (BMDMs): In contrast to classic antioxidant NAC, CCTV was unable to restore GSH levels
GSSG levels (BMDMs): In contrast to classic antioxidant NAC, CCTV was unable to restore GSH levels or reduce GSSG

ALLC [B4, ALLC peptide-lipid conjugate nanoparticle, N-terminus conjugation]
Mean Polydispersity Index (PDI) [1]: 0.151
Size (Mean Z average) [1]: 86 nm

ALLC [C4, ALLC peptide-lipid conjugate nanoparticle, SH conjugation]
Mean Polydispersity Index (PDI) [1]: 0.002
Size (Mean Z average) [1]: 79 nm

CCTV [N-term CCTV]
apoptosis and cell death (RAW cells): significant apoptosis and cell death
active (cleaved at Asp175, p19/17) caspase 3 [2]: upregulation; also recorded: significant apoptosis-associated caspase-3 activity
heme oxygenase-1 (HO-1) levels [2]: upregulation; also recorded: increased

DKQT [B1, DKQT peptide-lipid conjugate nanoparticle, N-terminus conjugation]
Mean Polydispersity Index (PDI) [1]: 0.176
Size (Mean Z average) [1]: 204 nm

HLDK [B3, HLDK peptide-lipid conjugate nanoparticle, N-terminus conjugation]
Mean Polydispersity Index (PDI) [1]: 0.257
Size (Mean Z average) [1]: 61 nm

IVAK [B2, IVAK peptide-lipid conjugate nanoparticle, N-terminus conjugation]
Mean Polydispersity Index (PDI) [1]: 0.058
Size (Mean Z average) [1]: 53 nm

KISV [A4, KISV peptide-lipid conjugate nanoparticle, N-terminus conjugation]
Mean Polydispersity Index (PDI) [1]: 0.09
Size (Mean Z average) [1]: 114 nm

KTIV [A6, KTIV peptide-lipid conjugate nanoparticle, N-terminus conjugation]
Mean Polydispersity Index (PDI) [1]: 0.054
Size (Mean Z average) [1]: 142 nm

KVSA [A2, KVSA peptide-lipid conjugate nanoparticle, N-terminus conjugation]
Mean Polydispersity Index (PDI) [1]: 0.124
Size (Mean Z average) [1]: 110 nm

LLIA [A3, LLIA peptide-lipid conjugate nanoparticle, N-terminus conjugation]
Mean Polydispersity Index (PDI) [1]: 0.162
Size (Mean Z average) [1]: 134 nm

LLLI [B6, LLLI peptide-lipid conjugate nanoparticle, N-terminus conjugation]
Mean Polydispersity Index (PDI) [1]: 0.152
Size (Mean Z average) [1]: 223 nm

MDHL [C2, MDHL peptide-lipid conjugate nanoparticle, N-terminus conjugation]
Mean Polydispersity Index (PDI) [1]: 0.111
Size (Mean Z average) [1]: 134 nm

MKVS [C1, MKVS peptide-lipid conjugate nanoparticle, N-terminus conjugation]
Mean Polydispersity Index (PDI) [1]: 0.159
Size (Mean Z average) [1]: 189 nm

QDSM [B5, QDSM peptide-lipid conjugate nanoparticle, N-terminus conjugation]
Mean Polydispersity Index (PDI) [1]: 0.169
Size (Mean Z average) [1]: 198 nm

RLAS [A1, RLAS peptide-lipid conjugate nanoparticle, N-terminus conjugation]
Mean Polydispersity Index (PDI) [1]: 0.198
Size (Mean Z average) [1]: 93 nm

VTCC
Mean Polydispersity Index (PDI) ([1]; listed as C3): 0.148
Size (Mean Z average) ([1]; listed as C3): 167 nm
co-staining with F4/80 in plaque [3]: not VTCC rhodamine signal
CCL2-induced monocyte migration [4]: not seen with VTCC

VTCC [A5]
Mean Polydispersity Index (PDI) [1]: 0.141
Size (Mean Z average) [1]: 76 nm
apoptosis and cell death (RAW cells): significant apoptosis and cell death
active (cleaved at Asp175, p19/17) caspase 3 ([2]; listed as N-term VTCC): upregulation
heme oxygenase-1 (HO-1) levels ([2]; listed as N-term VTCC): upregulation

canakinumab: interleukin-1 beta (IL-1β) neutralizing monoclonal antibody
cardiovascular events ([5]; cardiovascular disease): a reduction in cardiovascular events
risk of death from infection and sepsis [5]: significantly increased risk of death from infection and sepsis
